The values that follow come from patent US20240240209A1, “SYNTHESIS OF ENANTIOPURE CIS-A-IRONE FROM A RENEWABLE CARBON SOURCE” (Agency for Science, Technology and Research, priority 2021, published 2024).

The labels stand for the following.
B1: pMT1_E153K: pMT1 with E153K (protein)
chain: MPQEARTPQQQVTADEVGDWYDKFGEVYHLTLGESVHCGLWFPPDAPVPQDMELVTMSSQAQDRYTDYLIETLDPKAGQHLLDIGCGTGRTALKAARQRGIAVTGVAVSKEQIAAANRLAAGHGLTERLTFEVADAMRLPYEDESFDCAWAIKSLCHMDRAKALGEAWRVLKPGGDLLVLESVVTEELTEPETALFETLYAANVPPRLGEFFDIVSGAGFHTLSLKDLSANLAMTMNVFALGVYSRRAEFTERFGAEFVDGLLAGLGSAQETLIRKTRFFMATLRKPAV
B2: pMT1_E153N: pMT1 with E153N (protein)
chain: MPQEARTPQQQVTADEVGDWYDKFGEVYHLTLGESVHCGLWFPPDAPVPQDMELVTMSSQAQDRYTDYLIETLDPKAGQHLLDIGCGTGRTALKAARQRGIAVTGVAVSKEQIAAANRLAAGHGLTERLTFEVADAMRLPYEDESFDCAWAINSLCHMDRAKALGEAWRVLKPGGDLLVLESVVTEELTEPETALFETLYAANVPPRLGEFFDIVSGAGFHTLSLKDLSANLAMTMNVFALGVYSRRAEFTERFGAEFVDGLLAGLGSAQETLIRKTRFFMATLRKPAV
B3: pMT1_E153L: pMT1 with E153L (protein)
chain: MPQEARTPQQQVTADEVGDWYDKFGEVYHLTLGESVHCGLWFPPDAPVPQDMELVTMSSQAQDRYTDYLIETLDPKAGQHLLDIGCGTGRTALKAARQRGIAVTGVAVSKEQIAAANRLAAGHGLTERLTFEVADAMRLPYEDESFDCAWAILSLCHMDRAKALGEAWRVLKPGGDLLVLESVVTEELTEPETALFETLYAANVPPRLGEFFDIVSGAGFHTLSLKDLSANLAMTMNVFALGVYSRRAEFTERFGAEFVDGLLAGLGSAQETLIRKTRFFMATLRKPAV
B4: pMT1_E153M: pMT1 with E153M (protein)
chain: MPQEARTPQQQVTADEVGDWYDKFGEVYHLTLGESVHCGLWFPPDAPVPQDMELVTMSSQAQDRYTDYLIETLDPKAGQHLLDIGCGTGRTALKAARQRGIAVTGVAVSKEQIAAANRLAAGHGLTERLTFEVADAMRLPYEDESFDCAWAIMSLCHMDRAKALGEAWRVLKPGGDLLVLESVVTEELTEPETALFETLYAANVPPRLGEFFDIVSGAGFHTLSLKDLSANLAMTMNVFALGVYSRRAEFTERFGAEFVDGLLAGLGSAQETLIRKTRFFMATLRKPAV
B5: pMT1_M236N: pMT1 with M236N (protein)
chain: MPQEARTPQQQVTADEVGDWYDKFGEVYHLTLGESVHCGLWFPPDAPVPQDMELVTMSSQAQDRYTDYLIETLDPKAGQHLLDIGCGTGRTALKAARQRGIAVTGVAVSKEQIAAANRLAAGHGLTERLTFEVADAMRLPYEDESFDCAWAIESLCHMDRAKALGEAWRVLKPGGDLLVLESVVTEELTEPETALFETLYAANVPPRLGEFFDIVSGAGFHTLSLKDLSANLAMTNNVFALGVYSRRAEFTERFGAEFVDGLLAGLGSAQETLIRKTRFFMATLRKPAV
B6: pMT1_M236L: pMT1 with M236L (protein)
chain: MPQEARTPQQQVTADEVGDWYDKFGEVYHLTLGESVHCGLWFPPDAPVPQDMELVTMSSQAQDRYTDYLIETLDPKAGQHLLDIGCGTGRTALKAARQRGIAVTGVAVSKEQIAAANRLAAGHGLTERLTFEVADAMRLPYEDESFDCAWAIESLCHMDRAKALGEAWRVLKPGGDLLVLESVVTEELTEPETALFETLYAANVPPRLGEFFDIVSGAGFHTLSLKDLSANLAMTLNVFALGVYSRRAEFTERFGAEFVDGLLAGLGSAQETLIRKTRFFMATLRKPAV
B7: pMT1_R160M: pMT1 with R160M (protein)
chain: MPQEARTPQQQVTADEVGDWYDKFGEVYHLTLGESVHCGLWFPPDAPVPQDMELVTMSSQAQDRYTDYLIETLDPKAGQHLLDIGCGTGRTALKAARQRGIAVTGVAVSKEQIAAANRLAAGHGLTERLTFEVADAMRLPYEDESFDCAWAIESLCHMDMAKALGEAWRVLKPGGDLLVLESVVTEELTEPETALFETLYAANVPPRLGEFFDIVSGAGFHTLSLKDLSANLAMTMNVFALGVYSRRAEFTERFGAEFVDGLLAGLGSAQETLIRKTRFFMATLRKPAV
B8: pMT1_R160N (protein)
chain: MPQEARTPQQQVTADEVGDWYDKFGEVYHLTLGESVHCGLWFPPDAPVPQDMELVTMSSQAQDRYTDYLIETLDPKAGQHLLDIGCGTGRTALKAARQRGIAVTGVAVSKEQIAAANRLAAGHGLTERLTFEVADAMRLPYEDESFDCAWAIESLCHMDNAKALGEAWRVLKPGGDLLVLESVVTEELTEPETALFETLYAANVPPRLGEFFDIVSGAGFHTLSLKDLSANLAMTMNVFALGVYSRRAEFTERFGAEFVDGLLAGLGSAQETLIRKTRFFMATLRKPAV
B9: pMT1_R160P: pMT1 with R160P (protein)
chain: MPQEARTPQQQVTADEVGDWYDKFGEVYHLTLGESVHCGLWFPPDAPVPQDMELVTMSSQAQDRYTDYLIETLDPKAGQHLLDIGCGTGRTALKAARQRGIAVTGVAVSKEQIAAANRLAAGHGLTERLTFEVADAMRLPYEDESFDCAWAIESLCHMDPAKALGEAWRVLKPGGDLLVLESVVTEELTEPETALFETLYAANVPPRLGEFFDIVSGAGFHTLSLKDLSANLAMTMNVFALGVYSRRAEFTERFGAEFVDGLLAGLGSAQETLIRKTRFFMATLRKPAV
B10: pMT1_R160L (protein)
chain: MPQEARTPQQQVTADEVGDWYDKFGEVYHLTLGESVHCGLWFPPDAPVPQDMELVTMSSQAQDRYTDYLIETLDPKAGQHLLDIGCGTGRTALKAARQRGIAVTGVAVSKEQIAAANRLAAGHGLTERLTFEVADAMRLPYEDESFDCAWAIESLCHMDLAKALGEAWRVLKPGGDLLVLESVVTEELTEPETALFETLYAANVPPRLGEFFDIVSGAGFHTLSLKDLSANLAMTMNVFALGVYSRRAEFTERFGAEFVDGLLAGLGSAQETLIRKTRFFMATLRKPAV
B11: pMT1_Y200N (protein)
chain: MPQEARTPQQQVTADEVGDWYDKFGEVYHLTLGESVHCGLWFPPDAPVPQDMELVTMSSQAQDRYTDYLIETLDPKAGQHLLDIGCGTGRTALKAARQRGIAVTGVAVSKEQIAAANRLAAGHGLTERLTFEVADAMRLPYEDESFDCAWAIESLCHMDRAKALGEAWRVLKPGGDLLVLESVVTEELTEPETALFETLNAANVPPRLGEFFDIVSGAGFHTLSLKDLSANLAMTMNVFALGVYSRRAEFTERFGAEFVDGLLAGLGSAQETLIRKTRFFMATLRKPAV
B12: pMT1_Y200M: pMT1 with Y200M (protein)
chain: MPQEARTPQQQVTADEVGDWYDKFGEVYHLTLGESVHCGLWFPPDAPVPQDMELVTMSSQAQDRYTDYLIETLDPKAGQHLLDIGCGTGRTALKAARQRGIAVTGVAVSKEQIAAANRLAAGHGLTERLTFEVADAMRLPYEDESFDCAWAIESLCHMDRAKALGEAWRVLKPGGDLLVLESVVTEELTEPETALFETLMAANVPPRLGEFFDIVSGAGFHTLSLKDLSANLAMTMNVFALGVYSRRAEFTERFGAEFVDGLLAGLGSAQETLIRKTRFFMATLRKPAV

A short description of one experiment: Cell lysate reaction of pMT enzymes with psi-ionone, irones quantified by HS-SPME-GCMS. It is filed as biochemical. The settings on record: pMT1_E153 mutants; AUC vs non-mutated (=1). Put shortly:
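pMT1 site-saturation mutants were expressed in E. coli BL21(DE3) and lysed, and lysates were incubated 2 days at 28 °C with 0.2 mM SAM and 10 mg/L psi-ionone (plus caryophyllene) in 50 mM Tris pH 7, 10 mM MgCl2. Cis-α-irone was measured by HS-SPME-GCMS peak area and given as fold change over non-mutated enzyme.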
Take B1: the “fold change in cis-α-irone produced” value turned out to be 0.0.
On the same count and under the same terms, with B2 the figure was 0.0; with B3, 0.0; with B4, 0.0.

The same experiment, now with this note: pMT1_M236 mutants; AUC vs non-mutated (=1).
Regarding B5, the “fold change in cis-α-irone produced” value was 3.9.
With B6, the “fold change in cis-α-irone produced” value is 1.1.

The same experiment, now with this note: pMT1_R160 mutants; AUC vs non-mutated (=1).
Consider B7, for which the “fold change in cis-α-irone produced” value is given as 0.9.
In the case of B8, the “fold change in cis-α-irone produced” value amounted to 0.8.
Same read-out and setting: with B9 the figure was 0.6.
The same measure, in the same setting: with B10 the figure was 0.9.

Staying with this experiment, now noted: pMT1_Y200 mutants; AUC vs non-mutated (=1).
With B11, the “fold change in cis-α-irone produced” value stood at 0.0.
Take B12: the “fold change in cis-α-irone produced” value turned out to be 0.4.
